Article PMC2173256 (The Journal of Cell Biology, 2002)

How the values were obtained:
Experiment in all cases: co-IP
[1] = target: FLAG XIAP (X-linked mammalian inhibitor of apoptosis protein), wild-type, full length (UniProt P98170 1-497)
FLAG XIAP T143A E314S = FLAG XIAP T143A E314S (UniProt P98170 1-497, T143A | E314S)
FLAG XIAP V146A E314S = FLAG XIAP V146A E314S (UniProt P98170 1-497, V146A | E314S)
FLAG XIAP D148A E314S = FLAG XIAP D148A E314S (UniProt P98170 1-497, D148A | E314S)
[2] = target: FLAG XIAP D148A W310A E314S (UniProt P98170 1-497, D148A | W310A | E314S)
[3] = target: FLAG XIAP D148A D214S H343A (UniProt P98170 1-497, D148A | D214S | H343A)
FLAG XIAP D148A G306S = FLAG XIAP D148A G306S (UniProt P98170 1-497, D148A | G306S)
FLAG XIAP N259D = FLAG XIAP N259D (UniProt P98170 1-497, N259D)
FLAG XIAP H343A = FLAG XIAP H343A (UniProt P98170 1-497, H343A)
FLAG XIAP D214S = FLAG XIAP D214S (UniProt P98170 1-497, D214S)
FLAG XIAP D214S N259D = FLAG XIAP D214S N259D (UniProt P98170 1-497, D214S | N259D)
FLAG XIAP E314S = FLAG XIAP E314S (UniProt P98170 1-497, E314S)
FLAG XIAP N259D E314S = FLAG XIAP N259D E314S (UniProt P98170 1-497, N259D | E314S)
FLAG XIAP W310A E314S = FLAG XIAP W310A E314S (UniProt P98170 1-497, W310A | E314S)
FLAG XIAP D214S H343A = FLAG XIAP D214S H343A (UniProt P98170 1-497, D214S | H343A)
Sequence of FLAG XIAP D214S H343A (P98170 whole entry D214S/H343A): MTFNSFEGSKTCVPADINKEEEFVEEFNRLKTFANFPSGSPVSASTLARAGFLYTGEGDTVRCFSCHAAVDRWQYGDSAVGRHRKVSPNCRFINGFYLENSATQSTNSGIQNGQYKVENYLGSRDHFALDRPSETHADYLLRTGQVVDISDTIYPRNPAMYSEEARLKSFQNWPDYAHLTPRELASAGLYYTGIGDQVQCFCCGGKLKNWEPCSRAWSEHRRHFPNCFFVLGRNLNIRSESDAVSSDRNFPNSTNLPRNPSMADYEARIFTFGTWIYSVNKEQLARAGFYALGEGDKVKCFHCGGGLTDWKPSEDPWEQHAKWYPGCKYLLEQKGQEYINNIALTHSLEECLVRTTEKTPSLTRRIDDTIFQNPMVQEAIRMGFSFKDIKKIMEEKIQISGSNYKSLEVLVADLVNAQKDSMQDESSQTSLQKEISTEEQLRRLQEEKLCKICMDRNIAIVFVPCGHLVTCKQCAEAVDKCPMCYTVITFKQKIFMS

Sequence of FLAG XIAP N259D (P98170 whole entry N259D): as the sequence (P98170 whole entry D214S/H343A) above, with S214D, N259D, A343H counted along it
Sequence of FLAG XIAP H343A (P98170 whole entry H343A): as the sequence (P98170 whole entry D214S/H343A) above, with S214D counted along it
Sequence of FLAG XIAP N259D E314S (P98170 whole entry N259D/E314S): as the sequence (P98170 whole entry D214S/H343A) above, with S214D, N259D, E314S, A343H counted along it
Sequence of FLAG XIAP D214S N259D (P98170 whole entry D214S/N259D): as the sequence (P98170 whole entry D214S/H343A) above, with N259D, A343H counted along it
Sequence of FLAG XIAP D148A D214S H343A (P98170 whole entry D148A/D214S/H343A): as the sequence (P98170 whole entry D214S/H343A) above, with D148A counted along it
Sequence of FLAG XIAP T143A E314S (P98170 whole entry T143A/E314S): as the sequence (P98170 whole entry D214S/H343A) above, with T143A, S214D, E314S, A343H counted along it
Sequence of FLAG XIAP E314S (P98170 whole entry E314S): as the sequence (P98170 whole entry D214S/H343A) above, with S214D, E314S, A343H counted along it
Sequence of FLAG XIAP D148A W310A E314S (P98170 whole entry D148A/W310A/E314S): as the sequence (P98170 whole entry D214S/H343A) above, with D148A, S214D, W310A, E314S, A343H counted along it
Sequence of FLAG XIAP D148A G306S (P98170 whole entry D148A/G306S): as the sequence (P98170 whole entry D214S/H343A) above, with D148A, S214D, G306S, A343H counted along it
Sequence of FLAG XIAP (X-linked mammalian inhibitor of apoptosis protein), wild-type, full length (P98170 whole entry): as the sequence (P98170 whole entry D214S/H343A) above, with S214D, A343H counted along it
Sequence of FLAG XIAP D148A E314S (P98170 whole entry D148A/E314S): as the sequence (P98170 whole entry D214S/H343A) above, with D148A, S214D, E314S, A343H counted along it
Sequence of FLAG XIAP W310A E314S (P98170 whole entry W310A/E314S): as the sequence (P98170 whole entry D214S/H343A) above, with S214D, W310A, E314S, A343H counted along it
Sequence of FLAG XIAP V146A E314S (P98170 whole entry V146A/E314S): as the sequence (P98170 whole entry D214S/H343A) above, with V146A, S214D, E314S, A343H counted along it
Sequence of FLAG XIAP D214S (P98170 whole entry D214S): as the sequence (P98170 whole entry D214S/H343A) above, with A343H counted along it

- DIABLO binding relative to wild-type XIAP (arbitrary value, 10 = 100%) [1]: 10 arbitrary (10 = 100%)
- DIABLO binding relative to wild-type XIAP (arbitrary value, 10 = 100%) (FLAG XIAP T143A E314S): 5 arbitrary (10 = 100%)
- DIABLO binding relative to wild-type XIAP (arbitrary value, 10 = 100%) (FLAG XIAP V146A E314S): 5 arbitrary (10 = 100%)
- DIABLO binding relative to wild-type XIAP (arbitrary value, 10 = 100%) (FLAG XIAP D148A E314S): 5 arbitrary (10 = 100%)
- DIABLO binding relative to wild-type XIAP (arbitrary value, 10 = 100%) [2]: 4 arbitrary (10 = 100%)
- DIABLO binding relative to wild-type XIAP (arbitrary value, 10 = 100%) [3]: 9 arbitrary (10 = 100%)
- DIABLO binding relative to wild-type XIAP (arbitrary value, 10 = 100%) (FLAG XIAP D148A G306S): 8 arbitrary (10 = 100%)
- DIABLO binding relative to wild-type XIAP (arbitrary value, 10 = 100%) (FLAG XIAP N259D): 10 arbitrary (10 = 100%)
- DIABLO binding relative to wild-type XIAP (arbitrary value, 10 = 100%) (FLAG XIAP H343A): 10 arbitrary (10 = 100%)
- DIABLO binding relative to wild-type XIAP (arbitrary value, 10 = 100%) (FLAG XIAP D214S): 9 arbitrary (10 = 100%)
- DIABLO binding relative to wild-type XIAP (arbitrary value, 10 = 100%) (FLAG XIAP D214S N259D): 9 arbitrary (10 = 100%)
- DIABLO binding relative to wild-type XIAP (arbitrary value, 10 = 100%) (FLAG XIAP E314S): 5 arbitrary (10 = 100%)
- DIABLO binding relative to wild-type XIAP (arbitrary value, 10 = 100%) (FLAG XIAP N259D E314S): 5 arbitrary (10 = 100%)
- DIABLO binding relative to wild-type XIAP (arbitrary value, 10 = 100%) (FLAG XIAP W310A E314S): 4 arbitrary (10 = 100%)
- DIABLO binding relative to wild-type XIAP (arbitrary value, 10 = 100%) (FLAG XIAP D214S H343A): 8 arbitrary (10 = 100%)
B1: processed DIABLO (HA-tagged DIABLO) (natural protein)
chain: AVPIAQKSEPQSLSNEALMRRAVSLVTDSTSTFLSQTTYALIEAITEYTKAVYTLVSLYRQYTSLLGKMNSQEEDEVWQVIIGARVEMTSKQQEYLKLETTWMTAVGLSEMAAEAAYQTGADQASITARNHIQLVKSQVQEVRQLSQKAETKLAEAQTKELHQKAQEVSDEGADQEEEAYLRED
